Changes are numbered by the printed parent chain. Numbers in names are those of the source.
B1: 752_1 human IgG4 chimeric antibody (antibody, V domains shown)
VH: QVQLQQSGAELARPGASVKLSCKASGYTFTSCGISWVKQRTGQGLEWIGEIYPRGGNTYYNEKFKGKATLTADKSSSTAYMELRSLTSEDSAVYFCARENGNYDPLFAYWGQGTLVTVSA
VL: DIQMTQSPSSLSASLGGKVTITCKASQDINKYIAWYQHKPGKGPRLLIHYTSTLQPGIPSRFSGSGSGRDYSFSIYNLEPEDIATYYCLQYYNLWTFGGGTKLEIK
B2: 2228_15 human IgG4 chimeric antibody (antibody, V domains shown)
VH: QVQLQQSGPELVKPGTSVKISCKASGYTFTDYYINWVKQRPGQGLEWIGWIFPGSGSSYYNAIFKGKATLTVDTSSNTAHMSLSSLTSDDSAVYFCARGDFGNFGGFFTYWGQGTLVTVSA
VL: DVVVTQSPASLAVSLGQRATISCRASKSVSTSGYSFMHWYQQKPGQPPKLLIYLASNLESGVPARFSGSGSGTDFILNIHPVEEEDAATYYCQHSRELPLTFGAGTKLELK
B3: humanized 2228-15 IgG4 (S108P) prototype #2 (antibody, V domains shown)
VH: QVQLVQSGAEVKKPGASVKVSCKASGYTFTDYYINWVRQAPGQGLEWMGWIFPGSGSSYYNAIFKGRVTMTRDTSISTAYMELSRLRSDDTAVYYCARGDFGNFGGFFTYWGQGTLVTVSS
VL: DIVMTQSPDSLAVSLGERATINCRASKSVSTSGYSFMHWYQQKPGQPPKLLIYLASNLESGVPDRFSGSGSGTDFTLTIRPLQAEDVAVYYCQHSRELPLTFGQGTKLEIK
notes: also called hu #2
B4: recombinant 2228-15 mIgG (antibody, V domains shown)
VH: B2 VH
VL: B2 VL
B5: humanized 752-1 IgG4 (S108P) prototype #4: humanized 752 antibody, 752_hVH-2 (SEQ ID NO: 129) and 752_hVL-2 (SEQ ID NO: 119), human IgG4 (S108P) (antibody, V domains shown)
VH: B1 VH with A9T, E10G, K38T, T41A, T78S, S85G, S88A, L115T, V116L, A120S
VL: DIQMTQSPSSLSASVGDRVTITCKASQDINKYIAWYQQKPGKAPKLLIHYTSTLQPGVPSRFSGSGSGTDFTFTISSLQPEDIATYYCLQYYNLWTFGGGTKVEIK
B6: humanized 752-1 IgG4 (S108P) prototype #3: humanized 752 antibody, 752_hVH-2 (SEQ ID NO: 129) and 752_hVL-1 (SEQ ID NO: 114), human IgG4 (S108P) (antibody, V domains shown)
VH: B1 VH with A9T, E10G, K38T, T41A, T78S, S85G, S88A, L115T, V116L, A120S
VL: B5 VL with H49Y
modifications: human IgG4 S108P constant region
B7: humanized 2228-15 IgG4 (S108P) prototype #1: humanized 2228 antibody, 2228_hVH-1 (SEQ ID NO: 144) and 2228_hVL-1 (SEQ ID NO: 134), human IgG4 (S108P) (antibody, V domains shown)
VH: B3 VH
VL: DVVMTQSPLSLPVTLGQPASISCRASKSVSTSGYSFMHWFQQRPGQSPRRLIYLASNLESGVPDRFSGSGSGTDFTLKISRVEAEDVGVYYCQHSRELPLTFGGGTKVEIK
modifications: human IgG4 S108P constant region
B8: humanized 2228-15 IgG4 (S108P) prototype #4: humanized 2228 antibody, 2228_hVH-2 (SEQ ID NO: 149) and 2228_hVL-2 (SEQ ID NO: 139), human IgG4 (S108P) (antibody, V domains shown)
VH: EIQLVQSGAEVKKPGSSVKVSCKASGYTFTDYYINWMRQAPGQGLEWIGWIFPGSGSSYYNAIFKGRATLTVDTSTNTAYMELSSLRSEDTAFYFCARGDFGNFGGFFTYWGQGTLVTVSS
VL: B3 VL
modifications: human IgG4 S108P constant region
B9: humanized 2228-15 IgG4 (S108P) prototype #2: humanized 2228 antibody, 2228_hVH-1 (SEQ ID NO: 144) and 2228_hVL-2 (SEQ ID NO: 139), human IgG4 (S108P) (antibody, V domains shown)
VH: B3 VH
VL: B3 VL
modifications: human IgG4 S108P constant region
B10: humanized 2228-15 IgG4 (S108P) prototype #3: humanized 2228 antibody, 2228_hVH-2 (SEQ ID NO: 149) and 2228_hVL-1 (SEQ ID NO: 134), human IgG4 (S108P) (antibody, V domains shown)
VH: B8 VH
VL: B7 VL
modifications: human IgG4 S108P constant region
B11: humanized 752-1 IgG4 (S108P) prototype #1: humanized 752 antibody, 752_hVH-1 (SEQ ID NO: 124) and 752_hVL-1 (SEQ ID NO: 114), human IgG4 (S108P) (antibody, V domains shown)
VH: QVQLVQSGAEVKKPGASVKVSCKASGYTFTSCGISWVRQAPGQGLEWMGEIYPRGGNTYYNEKFKGRVTMTTDTSTSTAYMELRSLRSDDTAVYYCARENGNYDPLFAYWGQGTLVTVSS
VL: B5 VL with H49Y
modifications: human IgG4 S108P constant region
B12: humanized 752-1 IgG4 (S108P) prototype #2: humanized 752 antibody, 752_hVH-1 (SEQ ID NO: 124) and 752_hVL-2 (SEQ ID NO: 119), human IgG4 (S108P) (antibody, V domains shown)
VH: B11 VH
VL: B5 VL
modifications: human IgG4 S108P constant region

Molecular target: T1, Human TMPRSS2 expressed on cells (human, UniProt O15393 1-492)
T1 construct: also called TMPRSS2 expressing cells; Daudi-TMPRSS2 transfectant
Assay: not given
Details: not given

T1 sequence (O15393 whole entry): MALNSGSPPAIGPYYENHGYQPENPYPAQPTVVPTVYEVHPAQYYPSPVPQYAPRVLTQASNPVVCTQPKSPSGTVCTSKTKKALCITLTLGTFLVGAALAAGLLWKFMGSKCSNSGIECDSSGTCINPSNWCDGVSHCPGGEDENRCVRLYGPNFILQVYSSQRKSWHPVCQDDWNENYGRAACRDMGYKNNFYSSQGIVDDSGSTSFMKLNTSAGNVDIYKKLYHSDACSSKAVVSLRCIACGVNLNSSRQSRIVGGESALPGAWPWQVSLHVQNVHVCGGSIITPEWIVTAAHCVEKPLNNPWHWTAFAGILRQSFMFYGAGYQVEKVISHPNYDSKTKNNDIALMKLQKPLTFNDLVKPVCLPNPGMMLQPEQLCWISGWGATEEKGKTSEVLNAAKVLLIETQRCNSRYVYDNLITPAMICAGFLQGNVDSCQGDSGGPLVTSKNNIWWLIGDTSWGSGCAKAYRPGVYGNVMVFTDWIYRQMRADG

| Molecule | APC median at 3 µg/ml |
| --- | --- |
| B1 | 2040 |
| B2 | 2370 |
| B3 | 2540 |

Molecular target: T2, Human TMPRSS2 recombinant protein, extracellular region (N-terminal His tag, C-terminal Strep-tag II) (human, UniProt O15393 106-492)
T2 construct: also called Human TMPRSS2 recombinant proteins; extracellular region of human TMPRSS2
Assay: SPR (BIACore)
Details: not given

T2 sequence (O15393 other isoform, or with tags, fused parts or gaps limits assumed): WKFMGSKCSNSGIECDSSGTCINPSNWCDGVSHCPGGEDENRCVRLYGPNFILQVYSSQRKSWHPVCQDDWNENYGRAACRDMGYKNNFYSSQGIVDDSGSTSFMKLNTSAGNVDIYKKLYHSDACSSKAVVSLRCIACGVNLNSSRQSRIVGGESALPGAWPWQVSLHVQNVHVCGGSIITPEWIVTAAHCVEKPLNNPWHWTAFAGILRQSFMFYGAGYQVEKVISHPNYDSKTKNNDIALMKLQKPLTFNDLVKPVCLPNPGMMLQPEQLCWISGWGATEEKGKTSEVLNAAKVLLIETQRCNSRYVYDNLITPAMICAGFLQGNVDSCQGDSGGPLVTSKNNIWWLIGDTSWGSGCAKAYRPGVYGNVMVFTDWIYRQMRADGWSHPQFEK

| Molecule | Kd |
| --- | --- |
| B4 | 3.72 nM |

Molecular target: human TMPRSS2 (Homo sapiens, UniProt O15393)
Assay: BIACore binding assay of anti-TMPRSS2 antibodies
Details: Table 8, recombinant and humanized antibodies

Chain of human TMPRSS2 (O15393 106-492 limits assumed): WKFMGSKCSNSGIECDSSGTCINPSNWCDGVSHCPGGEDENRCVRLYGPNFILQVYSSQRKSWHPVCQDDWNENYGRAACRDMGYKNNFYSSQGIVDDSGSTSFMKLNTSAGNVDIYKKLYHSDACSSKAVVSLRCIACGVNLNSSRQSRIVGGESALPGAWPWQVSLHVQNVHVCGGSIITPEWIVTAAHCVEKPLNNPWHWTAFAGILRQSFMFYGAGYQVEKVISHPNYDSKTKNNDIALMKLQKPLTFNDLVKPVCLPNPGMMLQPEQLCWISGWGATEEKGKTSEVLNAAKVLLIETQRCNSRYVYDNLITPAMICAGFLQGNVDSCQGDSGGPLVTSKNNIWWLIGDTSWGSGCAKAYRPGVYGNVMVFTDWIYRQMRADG

| Molecule | ka | kd |
| --- | --- | --- |
| B5 | 2.5e+06 M⁻¹ s⁻¹ | 0.006114 s⁻¹ |
| B6 | 2.22e+06 M⁻¹ s⁻¹ | 0.004691 s⁻¹ |
| B7 | 5.22e+06 M⁻¹ s⁻¹ | 0.0641 s⁻¹ |
| B8 | 1.44e+06 M⁻¹ s⁻¹ | 0.0001 s⁻¹ |
| B9 | 731000 M⁻¹ s⁻¹ | 0.001039 s⁻¹ |
| B10 | 825000 M⁻¹ s⁻¹ | 0.000774 s⁻¹ |
| B11 | 412000 M⁻¹ s⁻¹ | 0.009321 s⁻¹ |
| B12 | 1.13e+06 M⁻¹ s⁻¹ | 0.01521 s⁻¹ |

From patent US20250277059A1, “ANTIBODY USED TO TREAT CORONAVIRUS INFECTION” (priority 2022, published 2025)
